Measured values published in paper PMC5717138.

Assays:
[1] = chromatin fractionation, chromatin-bound Polη 24 h post-UV; settings: glycan lost; control: wild type
[2] = RPA foci, complemented XP30RO, 4 and 24 h post-UV; settings: glycan lost; control: wild type
[3] = GFP-Polη foci, U2OS, 34 and 46 h after cisplatin removal; settings: glycan lost; control: wild type
[4] = DNA fiber assay after cisplatin; settings: glycan lost; control: wild type
[5] = GFP-Polη foci, U2OS, 24 h after cisplatin; settings: glycan lost; control: wild type
[6] = supF shuttle vector assay, complemented XP30RO; settings: glycan lost; control: wild type
[7] = GFP-Polη foci, U2OS, 24 h post-UVC; settings: glycan lost; control: wild type
[8] = DNA fiber assay, no cisplatin; settings: glycan lost; control: wild type
[9] = unreplicated CPDs in ssDNA, complemented XP30RO, 4 h post-UV; settings: glycan lost; control: wild type
[10] = denaturing Flag IP, anti-HA-Ub and anti-K48-Ub blot; settings: glycan lost; control: wild type
[11] = GFP-Polη foci, U2OS, 8 h post-UVC; settings: glycan lost; control: wild type
[12] = chromatin-fraction IP, anti-ubiquitin/K48 blot; settings: glycan lost; control: wild type
[13] = quantitative MS of di-Gly peptides; settings: glycan lost; control: wild type
[14] = RPA2 foci-positive cells, 24 h recovery after cisplatin; settings: glycan lost; control: wild type
[15] = in vitro ubiquitination of E. coli-purified His-Polη; settings: glycan lost; control: WT His-Polη without OGT co-expression

B1: DNA polymerase η (Polη): T457A (protein)
parent chain: MATGQDRVVALVDMDCFFVQVEQRQNPHLRNKPCAVVQYKSWKGGGIIAVSYEARAFGVTRSMWADDAKKLCPDLLLAQVRESRGKANLTKYREASVEVMEIMSRFAVIERASIDEAYVDLTSAVQERLQKLQGQPISADLLPSTYIEGLPQGPTTAEETVQKEGMRKQGLFQWLDSLQIDNLTSPDLQLTVGAVIVEEMRAAIERETGFQCSAGISHNKVLAKLACGLNKPNRQTLVSHGSVPQLFSQMPIRKIRSLGGKLGASVIEILGIEYMGELTQFTESQLQSHFGEKNGSWLYAMCRGIEHDPVKPRQLPKTIGCSKNFPGKTALATREQVQWWLLQLAQELEERLTKDRNDNDRVATQLVVSIRVQGDKRLSSLRRCCALTRYDAHKMSHDAFTVIKNCNTSGIQTEWSPPLTMLFLCATKFSASAPSSSTDITSFLSSDPSSLPKVPVTSSEAKTQGSGPAVTATKKATTSLESFFQKAAERQKVKEASLSSLTAPTQAPMSNSPSKPSLPFQTSQSTGTEPFFKQKSLLLKQKQLNNSSVSSPQQNPWSNCKALPNSLPTEYPGCVPVCEGVSKLEESSKATPAEMDLAHNSQSMHASSASKSVLEVTQKATPNPSLLAAEDQVPCEKCGSLVPVWDMPEHMDYHFALELQKSFLQPHSSNPQVVSAVSHQGKRNPKSPLACTNKRPRPEGMQTLESFFKPLTH
[1]
  localisation_or_trafficking: increases
[2]
  other: CPD lesion bypass: no change
[3]
  localisation_or_trafficking: increases
[4]
  other: replication fork progression, other: median fiber length: decreases, 8.62 vs 10.65
[5]
  localisation_or_trafficking: no change
[6]
  other: UV-induced mutation frequency: increases
[7]
  localisation_or_trafficking: increases
[8]
  other: replication fork progression, other: median fiber length: no change, 12.07 vs 12.17
[9]
  other: CPD lesion bypass: no change
[10]
  other: polyubiquitination: decreases
[11]
  localisation_or_trafficking: no change
[12]
  other: polyubiquitination: decreases
[13]
  other: site-specific ubiquitination: decreases
[14]
  other: translesion synthesis after cisplatin, other: % cells with >10 RPA2 foci: increases, 33.4 vs 12.6

B2: DNA polymerase η (Polη): T457A with GST-OGT co-expression (protein)
parent chain: MATGQDRVVALVDMDCFFVQVEQRQNPHLRNKPCAVVQYKSWKGGGIIAVSYEARAFGVTRSMWADDAKKLCPDLLLAQVRESRGKANLTKYREASVEVMEIMSRFAVIERASIDEAYVDLTSAVQERLQKLQGQPISADLLPSTYIEGLPQGPTTAEETVQKEGMRKQGLFQWLDSLQIDNLTSPDLQLTVGAVIVEEMRAAIERETGFQCSAGISHNKVLAKLACGLNKPNRQTLVSHGSVPQLFSQMPIRKIRSLGGKLGASVIEILGIEYMGELTQFTESQLQSHFGEKNGSWLYAMCRGIEHDPVKPRQLPKTIGCSKNFPGKTALATREQVQWWLLQLAQELEERLTKDRNDNDRVATQLVVSIRVQGDKRLSSLRRCCALTRYDAHKMSHDAFTVIKNCNTSGIQTEWSPPLTMLFLCATKFSASAPSSSTDITSFLSSDPSSLPKVPVTSSEAKTQGSGPAVTATKKATTSLESFFQKAAERQKVKEASLSSLTAPTQAPMSNSPSKPSLPFQTSQSTGTEPFFKQKSLLLKQKQLNNSSVSSPQQNPWSNCKALPNSLPTEYPGCVPVCEGVSKLEESSKATPAEMDLAHNSQSMHASSASKSVLEVTQKATPNPSLLAAEDQVPCEKCGSLVPVWDMPEHMDYHFALELQKSFLQPHSSNPQVVSAVSHQGKRNPKSPLACTNKRPRPEGMQTLESFFKPLTH
[15]
  other: polyubiquitination: no change
